In ChEMBL document CHEMBL2073939, “Export pumps for anionic conjugates encoded by MRP genes” (Adv Enzyme Regul, 1999):

Columns and labels:
[1] = substrate: Cc1ccc(N(CC(=O)O)CC(=O)O)c(OCCOc2cc(-c3c4cc(Cl)c(=O)cc-4oc4cc(O)c(Cl)cc34)ccc2N(CC(=O)O)CC(=O)O)c1; experiment: TP_TRANSPORTER: uptake in membrane vesicle from MRP1-expressing HeLa cells; type: functional, cell membranes
[2] = substrate: CCCCC/C=C\C\C=C/C=C/C=C/[C@@H](SC[C@@H](NC(=O)CC[C@H](N)C(=O)O)C(=O)NCC(=O)O)[C@@H](O)CCCC(=O)O; experiment: cells, lysate or membranes named

Protein	Km [1]	Km [2]
Multidrug resistance-associated protein 1 (Homo sapiens) (protein) MALRGFCSADGSDPLWDWNVTWNTSNPDFTKCFQNTVLVWVPCFYLWACFPFYFLYLSRHDRGYIQMTPLNKTKTALGFLLWIVCWADLFYSFWERSRGIFLAPVFLVSPTLLGITMLLATFLIQLERRKGVQSSGIMLTFWLVALVCALAILRSKIMTALKEDAQVDLFRDITFYVYFSLLLIQLVLSCFSDRSPLFSETIHDPNPCPESSASFLSRITFWWITGLIVRGYRQPLEGSDLWSLNKEDTSEQVVPVLVKNWKKECAKTRKQPVKVVYSSKDPAQPKESSKVDANEEVEALIVKSPQKEWNPSLFKVLYKTFGPYFLMSFFFKAIHDLMMFSGPQILKLLIKFVNDTKAPDWQGYFYTVLLFVTACLQTLVLHQYFHICFVSGMRIKTAVIGAVYRKALVITNSARKSSTVGEIVNLMSVDAQRFMDLATYINMIWSAPLQVILALYLLWLNLGPSVLAGVAVMVLMVPVNAVMAMKTKTYQVAHMKSKDNRIKLMNEILNGIKVLKLYAWELAFKDKVLAIRQEELKVLKKSAYLSAVGTFTWVCTPFLVALCTFAVYVTIDENNILDAQTAFVSLALFNILRFPLNILPMVISSIVQASVSLKRLRIFLSHEELEPDSIERRPVKDGGGTNSITVRNATFTWARSDPPTLNGITFSIPEGALVAVVGQVGCGKSSLLSALLAEMDKVEGHVAIKGSVAYVPQQAWIQNDSLRENILFGCQLEEPYYRSVIQACALLPDLEILPSGDRTEIGEKGVNLSGGQKQRVSLARAVYSNADIYLFDDPLSAVDAHVGKHIFENVIGPKGMLKNKTRILVTHSMSYLPQVDVIIVMSGGKISEMGSYQELLARDGAFAEFLRTYASTEQEQDAEENGVTGVSGPGKEAKQMENGMLVTDSAGKQLQRQLSSSSSYSGDISRHHNSTAELQKAEAKKEETWKLMEADKAQTGQVKLSVYWDYMKAIGLFISFLSIFLFMCNHVSALASNYWLSLWTDDPIVNGTQEHTKVRLSVYGALGISQGIAVFGYSMAVSIGGILASRCLHVDLLHSILRSPMSFFERTPSGNLVNRFSKELDTVDSMIPEVIKMFMGSLFNVIGACIVILLATPIAAIIIPPLGLIYFFVQRFYVASSRQLKRLESVSRSPVYSHFNETLLGVSVIRAFEEQERFIHQSDLKVDENQKAYYPSIVANRWLAVRLECVGNCIVLFAALFAVISRHSLSAGLVGLSVSYSLQVTTYLNWLVRMSSEMETNIVAVERLKEYSETEKEAPWQIQETAPPSSWPQVGRVEFRNYCLRYREDLDFVLRHINVTINGGEKVGIVGRTGAGKSSLTLGLFRINESAEGEIIIDGINIAKIGLHDLRFKITIIPQDPVLFSGSLRMNLDPFSQYSDEEVWTSLELAHLKDFVSALPDKLDHECAEGGENLSVGQRQLVCLARALLRKTKILVLDEATAAVDLETDDLIQSTIRTQFEDCTVLTIAHRLNTIMDYTRVIVLDKGEIQEYGAPSDLLQQRGLFYSMAKDAGLV	12 µM	
Multidrug resistance-associated protein 1 (Mus musculus) (protein) MALRSFCSADGSDPLWDWNVTWHTSNPDFTKCFQNTVLTWVPCFYLWSCFPLYFFYLSRHDRGYIQMTHLNKTKTALGFFLWIICWADLFYSFWERSQGVLRAPVLLVSPTLLGITMLLATFLIQLERRKGVQSSGIMLTFWLVALLCALAILRSKIISALKKDAHVDVFRDSTFYLYFTLVLVQLVLSCFSDCSPLFSETVHDRNPCPESSASFLSRITFWWITGMMVHGYRQPLESSDLWSLNKEDTSEEVVPVLVNNWKKECDKSRKQPVRIVYAPPKDPSKPKGSSQLDVNEEVEALIVKSPHKDREPSLFKVLYKTFGPYFLMSFLYKALHDLMMFAGPKILELIINFVNDREAPDWQGYFYTALLFVSACLQTLALHQYFHICFVSGMRIKTAVVGAVYRKALLITNAARKSSTVGEIVNLMSVDAQRFMDLATYINMIWSAPLQVILALYFLWLSLGPSVLAGVAVMILMVPLNAVMAMKTKTYQVAHMKSKDNRIKLMNEILNGIKVLKLYAWELAFQDKVMSIRQEELKVLKKSAYLAAVGTFTWVCTPFLVALSTFAVFVTVDERNILDAKKAFVSLALFNILRFPLNILPMVISSIVQASVSLKRLRIFLSHEELEPDSIERRSIKSGEGNSITVKNATFTWARGEPPTLNGITFSIPEGALVAVVGQVGCGKSSLLSALLAEMDKVEGHVTLKGSVAYVPQQAWIQNDSLRENILFGHPLQENYYKAVMEACALLPDLEILPSGDRTEIGEKGVNLSGGQKQRVSLARAVYSNSDIYLFDDPLSAVDAHVGKHIFEKVVGPMGLLKNKTRILVTHGISYLPQVDVIIVMSGGKISEMGSYQELLDRDGAFAEFLRTYANAEQDLASEDDSVSGSGKESKPVENGMLVTDTVGKHLQRHLSNSSSHSGDTSQQHSSIAELQKAGAKEETWKLMEADKAQTGQVQLSVYWNYMKAIGLFITFLSIFLFLCNHVSALASNYWLSLWTDDPPVVNGTQANRNFRLSVYGALGILQGAAIFGYSMAVSIGGIFASRRLHLDLLYNVLRSPMSFFERTPSGNLVNRFSKELDTVDSMIPQVIKMFMGSLFSVIGAVIIILLATPIAAVIIPPLGLVYFFVQRFYVASSRQLKRLESVSRSPVYSHFNETLLGVSVIRAFEEQERFIHQSDLKVDENQKAYYPSIVANRWLAVRLECVGNCIVLFAALFAVISRHSLSAGLVGLSVSYSLQITAYLNWLVRMSSEMETNIVAVERLKEYSETEKEAPWQIQETAPPSTWPHSGRVEFRDYCLRYREDLDLVLKHINVTIEGGEKVGIVGRTGAGKSSLTLGLFRINESAEGEIIIDGVNIAKIGLHNLRFKITIIPQDPVLFSGSLRMNLDPFSQYSDEEVWMALELAHLKGFVSALPDKLNHECAEGGENLSVGQRQLVCLARALLRKTKILVLDEATAAVDLETDNLIQSTIRTQFEDCTVLTIAHRLNTIMDYTRVIVLDKGEVRECGAPSELLQQRGIFYSMAKDAGLV		0.1 µM
